From the nanobody polyreactivity screen of Harvey et al. (2022)

Assay: yeast display, Sf9 membrane polyspecificity reagent, FACS + sequencing; frameworks hold sequencing errors
Summary of the method: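 In a synthetic yeast display library (Saccharomyces cerevisiae BJ5465), nanobody expression was induced with galactose for 36–48 hours. FACS gates were set low and high (top ~1%) using anti-HA fluorescence for expression and streptavidin fluorescence for binding of the Sf9 membrane reagent. Each polyreactivity label is drawn from the gate of origin.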

| Sequence | polyreactivity (PSR sort gate) |
| --- | --- |
| QVQLVESGGGLVQAGGSLRLSCAASGSTFYYYAMGWYRQAPGKERELVAAISRGGSTYYADSVKGRFTISRDNAKNTVYLQMNSLKPEDTAVYYCAVDARPYRQIYLYEYWGQGTQVTVSS | low polyreactivity |
| QVQLQESGRRPRAAGGSPRMSCAASGNIIWVAVMCRYRQAPVKERELVASIGFGCTTYYADSVKCRFTISRDNAKNTVYLQMISLIPEDTAVYYCAAPHYDWGELDFWGQGTQVPVSS | low polyreactivity |
| QVQLVETGGGLVQAGGSLRLSCAASFRSNTMGGYRQAPRKERELVAAISGSGSRTYYADSVKGRFTISRDNAKKTVYLQMNSLKPEDTAVYYCAALSYRNSEVGTSRGDYWGQGTQVTVSS | high polyreactivity |
| QVQLVESGGGLVQAGRSNRISCAASGGIFSYYAMGWYRQAPGKEREFVAAIDWGGGSTYYADSLKGRFTLSRDNAKNTVYLQMNSLKPEDTAVYYCAAEIYPIGWDDYDYWGQGTQVTVSS | low polyreactivity |
| QVQLVESGGGLVQAGGSLRLSCAASGSIFYRYAMGWYRQAPGKERELVAAITQSTDSTYYADSVKGRFTISRDNAKNTVYLQMNSLKPEDSAVYYCDAYLVYYRPYAYGYWGQGTQVTVSS | low polyreactivity |
| QVQLVESGGGLVQAGGSLRLSCAASGNTFLPNAMGWYRQAPGKERELVAAISNSGGSTYYADSVKGRFTISRDNAKNTVYLQMNSLKPEDTAVYYCAKRQWFPYYRGRDYWGQGTQVTVSS | high polyreactivity |
| QVQLVESGGGLVQAGGSLRLSCAASGSIFYRNTMGWYRQAPGKERELVAAITYSGGSTYYADSVKGRFTISRDNAKNTVYLQMNSLKPEDTAVYYCAVTDFYSYLLRYDSWGQGTQVTVSS | low polyreactivity |
| QVQLQESGGGLVQAGGSLRLSCAASGSISGPHVMGWYRQAPGKEREFVAAINVGANTYYADNVKGRFTISRDNANNTVYLQMNSLKPEDTAVYYCAAVYYGDIGHEYWGQGTQVTVSC | low polyreactivity |
| QVQLVDSGGGLVQAGGSLRLSCAASGLTCRKYTMGWYRQAPGKERELVAAISFRGGSTYYADSVKGRFTISRDNAKNTVYLQMNSLKPEDTAVYYCNARKRYSTDPGDYWGQGTQVTVSS | high polyreactivity |
| QVQLVESGGGLVQAGGSLRLSCAASGRIFGVNAMGGYRQAPGKERELVAAIFSGGSTYYADSVKGRFTISRDNAKNTVYLQMNSLKPEDTAVYYCAKLYTVAIVWSAYDYWGQGTQVTVSS | low polyreactivity |
| QVQLVESGGGLVQAGGSLRLSCAASGGIFIDYALGWYRQAPGKERELVAAITYSGTSTSYADSVKGRFTISRDNAKITVYLQMNSLKPEDTAVYYCNTYPVLFYVGLDYWGQGTQVTVSS | low polyreactivity |
| QVQLVESGGGLVQAGGSLRLSCAASGSTFYGKAMGWYRQAPGKERELVDTISWSGGSTYYADSVKGRFTISRDNAKNTVYLQMNSVKPEDTAVYYCNAEITTKSLVTRYSWYGGDYWRQGTQVTVSS | low polyreactivity |
| QVQLEESWGGLVQAGGSLRLICAASGSIFSYYAMGWYRQAPGKERELVAVITSGGSTYYADSVKGRFTISRDNAKNTVYLQMNSLKPEDTAVYYCAVKYPELRTWGYYYWGQGTQVTVSS | high polyreactivity |
| QVQLVESGGGLVQAGGSLRLSCAASASTFYLYAMGWYRQAPGKERELVAAISRGGTTYYADSVKGRFTISRDNEKNSVYLQMNSLKPEDTAVYYCNKLRRYSEYNADYGDYWGQGTQVTVSS | high polyreactivity |
| QVQLVESGGGLVQAGGSLRLSCAASGITFAYNAMGWYRQAPGKERELVATISIGGNTNYADSVKGRFTISRDNAKNTVYLQMNSLKPEDTAVYYCNADFPHEGGFCYWGQGTQVTVSS | low polyreactivity |
| QVQLVESGGGLVQAGGSLRLSCAASGRIFYRNAKGWYRQATGKERALVASITSGGRTNYADSVKGRFTISRDNAKNTVYLQMNSLKPEDTAVYYCAAPPPYSVRTFRFYYWGQGTQVTVSS | high polyreactivity |

| Sequence | polyreactivity (PSR sort gate) |
| --- | --- |
| QVQLVESGGDLVQAGGSLRLSCAASGGIFQKYVMGWYRQAPGKERELVARITSVGSTYYADSVKGRFTISRDNAKNTVYLQMNSLKPVDTAVYYCNAELYRRSQGYRFTAFDYWGQGTQVTVSS | low polyreactivity |
| QVQLVESGGGLVQAGGSLRLSCAASGSIFVYYAMGWYRQAPGKERELVATINYNDGSTYYADSVKGRFTISRDNAKNTVYLQMNSLKPEDTAVYYCAADIVWSPESHPWYYVHYYYWGQGTQVTVSS | low polyreactivity |
| QVKLVESAVRLVQAGGSLRLSCAASASTLYRYSMGLYRQAPGKERELVAAISSSGGSSYYADSVKGRFTISRDNAKNTVYLQMNRLKQEDTAVYYCSAAALRTIGAGYRYGNWGQGTQVTVSS | high polyreactivity |
| QVQLVESGGGLVQAGGSLRLSCAASGSIFWYNAMGWYRQAPGKERELVAAIRWRGGSTYYADSVKGRFTISRDNAKNTVYLQMNSLKPEDTAVYYCARDRYYRTLGYGYWGQGTQVNVSS | high polyreactivity |
| QVQLVESVGGFVQAGGSLRLSCAASGFTFRIYAMGLYRKATVKERELVAGITWSVGSTYYADSVKGRFTISRDNAKNTVYLQMNSLKPEETAVYYCAVRRNQHVVQLYYWGQGTQGTVSS | low polyreactivity |
| QVQLVESGGGLVQAGGSLRLSCAASGRTFNPYTMGWYRQAPGKEREFVATIRKSSGGTYYADSVKGRFTISRDTAKNTVYLQMNSLKPEDTAVYYCAAVGNGGMDYWGQGTQVTVSS | low polyreactivity |
| QVQLVESGGGLVQAGGSLRLSCAASGRTFYSYAMGWYRQAPGKERELVAAISASGGRTYYADSVKGRFTISRDNAKNTVYLQMNSLKPEDTAVYYCAAYPWYRMWGQGTQVTVSS | high polyreactivity |
| QVQLVESGGGLVQAGGSLRLSCAASGYVMGWYRQAPGKERELVAAITRGTSTYYADSVKGRFTISRDNAKNTVYLQMNSLKPEDTAVYYCAARTPGVSVYKDGYWGQGTQVTVSS | low polyreactivity |
| QVQLVESGGGLDQAGGSLRLSCAASGRTFPYYAMGWYRQAPGKERELVAAISSSGGRTYYADSVKGRFTISRDNAKNTVYLQMNSLKPEDTAVYYCNVDAWYPYQGFLVGYYYWGQGTQVTVSS | low polyreactivity |
| QVQLVESGGGLVQAGGSLRLSCAPSGIILAYYAMGWYRQAPGKERELVAAISRSGGITYYADSVKGRFTISRDNAKNTVYLQMNSLKPEDTAVYYCARYSSRPYDYWGQGTQVTVSS | high polyreactivity |
| QVQLVESGGGLVQAGGSLRLSCAASGRIFRANAMGWYRQAPGKERELVAAISTSGGSTTYADSVKGRFTISRDNAKNTVYLQMNCLKPEDTAVYYCAVDSWLKWRDKWVIRHDYWGQGTQVTVSS | high polyreactivity |
| QVQLVESGGGLVQARGSLRLSCAASGSTFSYNDMGWYRQAPGKERDLVADINVSVGRTYYADSVKGRFTISRDNAKNTVFLQMNSLKPEDTAVYYCNATLYTITSYVYAYDYWGQGTQVTVSS | low polyreactivity |
| QVQLVESGGGLVQAGGSLRLSCAASGFIFDTYALGWYRQAPGKERELVAVMSSSGGRTYYADSVKGRFTISRDNAKNTVYLQMNSLKPEDNAVYYCAARWYSGYGRFDYWGQGTQVTVSS | high polyreactivity |
| QVQLVESGGGLVQAGGSLRLSCAASGRTFASNAMGWYRQAPGKERELVAAITRGGSTYYADSVKGRFTISRDNAKNTVYLQMNSLKPEDTAVYYCAADRWWYQNEVDYWGQGTQVTVSS | low polyreactivity |
| QVQLVESGGGLVQAGGSLRLSCAASGIIFVVYAMGWYRQAPGKERELVAAISFRGGSTYYADSVKGRFTISRDNAKNTVYLQMNSLKPEDTAVYYCAARAFRHDGYDYWGQGTQVTVSS | low polyreactivity |
| QVQLVESGGGLVQAGGSLRLSCAASGRIFAPYAMGWYRQAPGKERELVAAITRGGITNYADSVKGRFTISRDNAKNTVYLQMNSLKPEDSAVYYCETVVNRRGFYQYFYWGQGTQVTVSS | high polyreactivity |
